Measurements: the DeepSol protein solubility set

assay: soluble on expression in E. coli; label from the status in PepcDB or PDB records

Q: For “MHRASLICRLASPSRINAIRNASSGKSHISASTLVQHRNQSVAAAVKHEPFLNGSSSIYIEQMYEAWLQDPSSVHTSWDAYFRNVEAGAGPGQAFQAPPATAYAGALGVSPAAAQVTTSSAPATRLDTNASVQSISDHLKIQLLIRSYQTRGHNIADLDPLGINSADLDDTIPPELELSFYGLGERDLDREFLLPPTTFISEKKSLTLREILQRLKDIYCTSTGVEYMHLNNLEQQDWIRRRFEAPRVTELSHDQKKVLFKRLIRSTKFEEFLAKKWPSEKRFGLEGCEVLIPAMKQVIDSSSTLGVDSFVIGMPHRGRLNVLANVCRQPLATILSQFSTLEPADEGSGDVKYHLGVCIERLNRQSQKNVKIAVVANPSHLEAVDPVVMGKVRAEAFYAGDEKCDRTMAILLHGDAAFAGQGVVLETFNLDDLPSYTTHGAIHIVVNNQIGFTTDPRSSRSSPYCTDVGRVVGCPIFHVNVDDPEAVMHVCNVAADWRKTFKKDVIVDLVCYRRHGHNELDEPMFTQPLMYQRIKQTKTALEKYQEKILNEGVANEQYVKEELTKYGSILEDAYENAQKVTYVRNRDWLDSPWDDFFKKRDPLKLPSTGIEQENIEQIIGKFSQYPEGFNLHRGLERTLKGRQQMLKDNSLDWACGEALAFGSLLKEGIHVRLSGQDVQRGTFSHRHHVLHDQKVDQKIYNPLNDLSEGQGEYTVCNSSLSEYAVLGFELGYSMVDPNSLVIWEAQFGDFSNTAQCIIDQFISSGQSKWIRQSGLVMLLPHGYEGMGPEHSSARPERFLQMCNEDDEIDLEKIAFEGTFEAQQLHDTNWIVANCTTPANIYHLLRRQVTMPFRKPAVVFSPKSLLRHPMARSPVEDFQSGSNFQRVIPETGAPSQNPPDVKRVVFCTGKVYYDMVAARKHVGKENDVALVRVEQLSPFPYDLVQQECRKYQGAEILWAQEEHKNMGAWSFVQPRINSLLSIDGRATKYAGRLPSSSPATGNKFTHMQEQKEMMSKVFGVPKSKLEGFKA”, which “soluble on expression in E. coli” value is on record?
A: not soluble

Q: Which “soluble on expression in E. coli” value does the source give for “MHRTTRIKITELNPHLMCVLCGGYFIDATTIIECLHSFCKTCIVRYLETSKYCPICDVQVHKTRPLLNIRSDKTLQDIVYKLVPGLFKNEMKRRRDFYAAHPSADAAN” here?
A: soluble

Q: For “MHSDEEIFKDTTTKALLQLLKKDIDFHEYCYQEIFPRGKEIKMNDNKNFKIYLVESGYFAYCLKNEYGDFGIISFVGGEIAINLIPLIKEEPEDAFLRCLTQVRCWVLDPDFVGRVLDENNQKAKFLLSNLLYTRKVYFKASKRTFMKKELRIRACLKEIGLYMGRVTKDKDFILPDEINNSILAQYANTTREYTNIIVLKLRKEGILDDSHKPWVIKKIDEL”, which “soluble on expression in E. coli” value is on record?
A: not soluble

Q: Which “soluble on expression in E. coli” value does the source give for “MHSGAYFFYAAPRAGTAGKQAMPIEGIDYRLVFASDVNPRDGLGLECWRGEQPLFEVFRDDVGRRFVVNLFASDVPLELLEAIIPTARRELGDFPRRSASRGVAKPG” here?
A: soluble

Q: Which “soluble on expression in E. coli” value does the source give for “MHSLDSYFQRTTAPKSAAQERREEFHEKVMRSADYIADKFVETVRPLVDEVADKLQSEMPEDMEGTAKRRLICELSRRFGVSISAFK” here?
A: not soluble

Q: Which “soluble on expression in E. coli” value does the source give for “MIADDPHLELRLAASERDLRAAQRLRYTVFVEELGGDGDLVDHAERLERDEFDDLCDHLLLIDRRRDAAALEDVVGVYRLLPGERAAGAGRFYCDSEYDLDPLRASGRRVLELGRSCVHPDYRGGAAVFLLWSGLADYALAQRTELLFGVASFHGTDIEALAEPLSYLHAFHLAPEELRVRARSEGGQRMDLIPPERIDRRAAMLAMPPLIKAYLRLGGVVGEGAWIDRAFNTTDVCLLMDTARMSARHRDFYARRTVSAE” here?
A: not soluble

Q: With “MIAITGASGQLGRLVIAQLLEKVPASDIVALVRDVNKVADLSAKGVQVKAADYNQPEALAFALQGVDKVLLISSSEVGQRAAQHRNVIEAAVKAGVKLVAYTSLLHADKSPLALAEEHRQTEALLKDSGLPHVLLRNGWYTENYAASIPAALEHGVFIGSAGEGKITSATREDFAAAAVAVLTQEGQAGKVYELAGDEPYTLVELAAEISKQSGKSIGYQNLSGAEFTAALVSAGLPDVFAQIIADSDVGASKGGLFDGGKHLSQLIGRPTTPLSAVVKATLKLEHHHHHH” as the sequence, how does the “soluble on expression in E. coli” value read?
A: not soluble

Q: Which “soluble on expression in E. coli” value does the source give for “MIAKISHGSSLYGVLAYNQLKVDERHADVLFTSRIIEPQGDNPYTIGHLSRSFGDYLTANRKTEKPVLHISLNPDPKDCLSEERFVSLAEEYMRRMGFGDQPYIVYRHNDIGREHLHIVSVRVDETGRAISDSYEHGRSMKVCRELERQFGLVLATPKQWKEGLPLSPVGYGDGNLKGQLAGVIRPIAREWRFRTLGEYRAVLSLYGITVDEVKGEYGGREYHGLTYSATDREGNKIGKPFKSSVFGKETGVAALERRMHNAAAWEKTHKEVAAATAGKVAAAMQTAGHDRAQFERELMRQGIGVVFRQNETGRIYGATFIDHAAKAVFNGSRLGKEFSAGVFNDLFAGQEGIHLPQPSAEVEHPTRQQEHTDISQWDGQDTGYRPDHKDGTTQNVAAAFNLFAPVPGGASGDQPVPLRKRKKKRKYGRQQLEHHHHHH” here?
A: not soluble

Q: Which “soluble on expression in E. coli” value does the source give for “MIALHFGAGNIGRGFIGALLHHSGYDVVFADVNETMVSLLNEKKEYTVELAEEGRSSEIIGPVSAINSGSQTEELYRLMNEAALITTAVGPNVLKLIAPSIAEGLRRRNTANTLNIIACENMIGGSSFLKKEIYSHLTEAEQKSVSETLGFPNSAVDRIVPIQHHEDPLKVSVEPFFEWVIDESGFKGKTPVINGALFVDDLTPYIERKLFTVNTGHAVTAYVGYQRGLKTVKEAIDHPEIRRVVHSALLETGDYLVKSYGFKQTEHEQYIKNQRSLLKSFHFGRCDPRSEVTSQKTGRKCRLVGPAKKIKEPNALAEGIAAALRFDFTGDPEAVELQALIEEKDTAAYFK” here?
A: not soluble

Q: With “MIATGDALNLLSKMTFKRLITLLKVFVSYQYSKITGNVVHPSVPYSIAIEPTTSCNLRCPECPSGLRSFTRPTGMLNIAMFSKIIDELYQQISYLIFYFQGEPYLNTSFLEMVKYASSKGIYTATSTNAHYLTDENARKTVESGLDRLIISIDGTTQEVYEQYRIGGSLEKVLEGTKNILAWKKKLHASTPHVIFQFLVVKPNQHQLKEVKKMAKELGVGEVRFKTAQIHDYENGSPLIPDIDKYARYRKNADNTYSIKNSLLNHCWKMWHSCVITWDGKIVPCCFDKDAHLVMGELKTNTFKEIWNSAPYIQFRKSLLKSRSEIDMCKNCTEGTTVWA” as the sequence, how does the “soluble on expression in E. coli” value read?
A: not soluble

Q: Which “soluble on expression in E. coli” value does the source give for “MIDELATKANVALKAMEDFTQEQVDHIVHQMAMAALDQHMPLAKMAVEETGRGIYEDKAIKNMYASEYIWNNIKHDKTVGVINKDEQTGLMEIAEPVGVVCGVTPTTNPTSTTIFKSLIALKTRNPIVFAFHPSAQKCSAEAARIVRDAAIAAGAPENCIQWIEQPSIDATSALMNHPGIAIVLATGGAGMVKSAYSTGKPALGVGPGNVPAYIEKTAKVKRAVNDLIVSKSFDNGMICASE” here?
A: not soluble

Q: Which “soluble on expression in E. coli” value does the source give for “MIDFSNIETYWPMTSSAFGLFITQGGLKPIFTSLNHMWYSKYGYLTERKAKLKEIENEYIYEIEKRKLENQEKFKNEIDCEFSKIPQTSLKEPVEYILYPAINESEQYLSNETLRNMFARTIASTFNQDKEKDLHSAFVQIIKQMTPLDAQNLLLINQEGNNLIANLQIGVHYSKENLSGTVNKANNIYLSKLDYSPDIIASSIDNLTRLGLIKVDYLHYPLDSNYESIKQTTIYKSLESEINTLNLFKTSNTKYDIKIEKGKVSLTDFGKKFISVCLE” here?
A: not soluble

Q: For “MIDGAEVSVSRGKNNPFYFNSDRWFHTLFRNQFGHLRVLQRFDQRSKQMQNLENYRVVEFNSKPNTLLLPHHADADFLLVVLNGRAVLTLVNPDGRDSNILEQGHAQKIPAGTTFFLVNPDDEENLRIIKLAVPVNNPHRFQDFFLSSTEAQQSYLQGFSKNILEASFDSDIKEISRVLFGEEGQQQQQGQESQQEGVIVELKREQIRELTKHAKSSSKKSLSSEDQPFNLRNQKPIYSNKLGRWFEITPEKNPQLRDLDMFIRSVDMKEGSLLLPHYNSKAIVILVINEGKANIELVGQREQQKQQEEQEESWEVQRYRAELSEDDVFIIPATYPVAINATSNLNFFAFGINAENNQRNFLAGEKDNVISEIPTEVLDVTFPASGEKVQKLIKKQSESQFVDAQPEQQEREEARKGGKGPFVY”, which “soluble on expression in E. coli” value is on record?
A: soluble

Q: With “MIDISHGHTSCSSHRSSSLPSVFWKIHLSPPLPSFKFKKSTESTQRQTIPKFSSPASSLAPSTPLWSLSSCLLVSEVSFWPGAGFLYNDLVCLDREDHCLSNSASHSCG” as the sequence, how does the “soluble on expression in E. coli” value read?
A: soluble

Q: Which “soluble on expression in E. coli” value does the source give for “MIDNLIKKEFLAHKEALEKSLEGLQEALKQSVHLLIETLENQGKILICGNGGSASDAQHFAAELTGRYKLERKGLSAISLNTDISALTAIANDYGYEEVFARQVEALGVKNDVLIGISTSGNSKNVLKAYEKAKDLEMKTLSLAGRDGGKMKPLSDMALIVPSDDTPRIQEMHILMIHILCDCIERHFAHKN” here?
A: not soluble

Q: With “MIDQFKFLNPQALISIFGKIPKFEESELLDVRLKRDGPTLVIQLMTKENVENKPKRWNKWDVIYVEISFFTIHNLTIKGLGTENIIDYFEINTIEEEGLLKIKCKNQMLVECSFEWAKVEGVTPGLIGLP” as the sequence, how does the “soluble on expression in E. coli” value read?
A: not soluble

Q: With “MIDVIEAGLFTTVQDGGRFGYRHAGVPAGGAMDAWAYRLANALVGNNGDEAVLEATIAGPTLRFRVEAVVAVCGGDFPCTLNGRTFALWKPMAVEPGDVLEVGVCRTGFRAYIAVSGGIDVPPVMGSRSTYVPAQLGGLSGRPLQRGDALPVGVTHGRRVIGRMRWGLASAARRYIGGKTKTVRAVPGPEYDEFTPASRRQFFAARYEVTTQSDRIGYRLSGPTLALVREREMVSEAVVFGTVQVPASGQPIVLMADSQTTGGYPRIAQVAAVDLPILAQARPGDFIQFQPIGPEEAMWLYKEQQQRLARWITAIRRQWEGER” as the sequence, how does the “soluble on expression in E. coli” value read?
A: not soluble

Q: For “MIEFFLPMDKIPTTTHQQKKVTVINGKPHFYEPESLKNARDKFTSLLAQHVPPSKLDGPIRLTVKWLFPKIKGSTNGQYKTTKPDTDNLQKLLKDCMTELGFWNDDAQVASEIIEKFWADTVGIYVKVEEL”, which “soluble on expression in E. coli” value is on record?
A: not soluble

Q: For “MIEFNHVSKTFGDQQAVSDLNLHFSEGSFSVLIGTSGSGKSTTLKMINRLVEHDSGTIRFAGEEIRSLPVLELRRRMGYAIQSIGLFPHWTVAQNIATVPQLQKWSRARINDRIDELMALLGLESALRDRYPHQLSGGQQQRVGVARALAADPQVLLMDEPFGALDPVTRGALQQEMTRIHQLLGRTIVLVTHDIDEALRLADHLVLMDGGHVIQQGSPLSMLTSPENDFVQAFFGRSELGVRLLSLRSVGDYVRRHEQLSGDALVEEMTLRDALSMFVARRCDVLPVANQQGEPCGTLHFRDLLSETSPRETTV”, which “soluble on expression in E. coli” value is on record?
A: not soluble

Q: Which “soluble on expression in E. coli” value does the source give for “MIEGHGDDSYKYRHPIRSNFSSNVYNKVNLDGLRAHLCGRISAISAYPEPEPYTLEARLADRHALPAASVCVTNGATEAIYLIAQTFRGTNTAILMPTFSEYADACRMHGHKVTSLYTLDAVPEDVRMVWLCNPNNPTGEVRDKKYLTELIAKHPRVCFVIDQSYEYFTLKELFTAQEAAGFPNVILLHSMTKRYAIPGLRLGYVTAHPGLIGRLRTNRMPWSVNQLAIEAGLYLLSEGIPAGLSMKDYLAECARLKSSLEAIGGLEVWPTDTHFMLVCLRFGKAAALKEYLAREEGILIRDASNFEGLDERFFRIATQTPEENDELVGAIAKWMAE” here?
A: not soluble

Q: With “MIEIEINNAQEITSALERLAQATAHRAPLMRSIAGTMESAVAQNFEVGGRPAWKKLKIRQGTPLVDTENLMASITSEYNNNEAIVGTNEPYAAIHQFGGKAGRGRKVAIPARPFLILTPQDEADILEDIQDYFQLLIK” as the sequence, how does the “soluble on expression in E. coli” value read?
A: not soluble

Q: For “MIEVISATALATVQDLGRHGSLGYGVGTSGAMDTLSLRLGNLLLGNAEDAAGIEIPLFPFEVRFVEDCTFAITGAACSAKLDGGRLPGNWAAQARKGQVLKLSYPTTGSRAYLCLAGGVDVPPVLGSRSTQLRGAFGGWQGRALQQGDVIPAGAANQQRAGDFGLESAVAGLPLMLDGLPAIRVLPAAEFDCFSVEAQDTFFAGEWKITTQSNRYGYRMEGTPLLAREALEIRSHGIVPGVIQVPHGGQPIVQMRDAQPSGGYPKFATVIEADLWRLGQAPIGSKVRFVQCSYEQAIEALDTNHAFIEDARRLLALRGLQGHRLEHHHHHH”, which “soluble on expression in E. coli” value is on record?
A: not soluble
